From patent publication US20050277762A1 (published 2005) come the findings set out here.

To fix the notation:
B1: Ubp1 (enzyme, S. cerevisiae, UniProt P25037 1-809, looked up)
chain: MDLFIESKINSLLQFLFGSRQDFLRNFKTWSNNNNNLSIYLLIFGIVVFFYKKPDHLNYIVESVSEMTTNFRNNNSLSRWLPRSKFTHLDEEILKRGGFIAGLVNDGNTCFMNSVLQSLASSRELMEFLDNNVIRTYEEIEQNEHNEEGNGQESAQDEATHKKNTRKGGKVYGKHKKKLNRKSSSKEDEEKSQEPDITFSVALRDLLSALNAKYYRDKPYFKTNSLLKAMSKSPRKNILLGYDQEDAQEFFQNILAELESNVKSLNTEKLDTTPVAKSELPDDALVGQLNLGEVGTVYIPTEQIDPNSILHDKSIQNFTPFKLMTPLDGITAERIGCLQCGENGGIRYSVFSGLSLNLPNENIGSTLKLSQLLSDWSKPEIIEGVECNRCALTAAHSHLFGQLKEFEKKPEGSIPEKLINAVKDRVHQIEEVLAKPVIDDEDYKKLHTANMVRKCSKSKQILISRPPPLLSIHINRSVFDPRTYMIRKNNSKVLFKSRLNLAPWCCDINEINLDARLPMSKKEKAAQQDSSEDENIGGEYYTKLHERFEQEFEDSEEEKEYDDAEGNYASHYNHTKDISNYDPLNGEVDGVTSDDEDEYIEETDALGNTIKKRIIEHSDVENENVKDNEELQEIDNVSLDEPKINVEDQLETSSDEEDVIPAPPINYARSFSTVPATPLTYSLRSVIVHYGTHNYGHYIAFRKYRGCWWRISDETVYVVDEAEVLSTPGVFMLFYEYDFDEETGKMKDDLEAIQSNNEEDDEKEQEQKGVQEPKESQEQGEGEEQEEGQEQMKFERTEDHRDISGKDVN
notes: also called Ubp1p
B2: Ubp2 (enzyme, S. cerevisiae, UniProt Q01476 1-1272, looked up)
chain: MPNEDNELQKAIENHHNQLLNQDKENADRNGSVIEDLPLYGTSINQQSTPGDVDDGKHLLYPDIATNLPLKTSDRLLDDILCDTIFLNSTDPKVMQKGLQSRGILKESMLSYSTFRSSIRPNCLGSLTDQVVFQTKSEYDSISCPKYNKIHVFQAVIFNPSLAEQQISTFDDIVKIPIYHLKVSVKVRQELERLKKHVGVTQFHSLDHLHEYDRVDLSTFDSSDPNLLDYGIYVSDDTNKLILIEIFKPEFNSPEEHESFTADAIKKRYNAMCVKNESLDKSETPSQVDCFYTLFKIFKGPLTRKSKAEPTKTIDSGNLALNTHLNPEWLTSKYGFQASSEIDEETNEIFTEYVPPDMVDYVNDLETRKIRESFVRKCLQLIFWGQLSTSLLAPNSPLKNTKSVKGMSSLQTSFSTLPWFHLLGESRARILLNSNEQTHSPLDAEPHFINLSVSHYYTDRDIIRNYESLSSLDPENIGLYFDALTYIANRKGAYQLIAYCGKQDIIGQEALENALLMFKINPKECNISELNEATLLSIYKYETSNKSQVTSNHLTNLKNALRLLAKYTKSDKLKFYVDHEPYRALSQAYDTLSIDESVDEDIIKTAYSVKINDSPGLKLDCDRALYTIAISKRSLDLFNFLTEECPQFSNYYGPEKLDYQEALKLLQVNENASDETILKIFKQKWFDENVYEPDQFLILRAALTKISIERNSTLITNFLLTGTIDPNSLPPENWPTGINNIGNTCYLNSLLQYYFSIAPLRRYVLEYQKTVENFNDHLSNSGHIRRIGGREISRGEVERSIQFIYQLRNLFYAMVHTRERCVTPSKELAYLAFAPSNVEVEFEVEGNKVVDQTGVLSDSKKETTDDAFTTKIKDTSLIDLEMEDGLNGDVGTDANRKKNESNDAEVSENEDTTGLTSPTRVAKISSDQLENALEMGRQQDVTECIGNVLFQIESGSEPIRYDEDNEQYDLVKQLFYGTTKQSIVPLSATNKVRTKVERFLSLLINIGDHPKDIYDAFDSYFKDEYLTMEEYGDVIRTVAVTTFPTILQVQIQRVYYDRERLMPFKSIEPLPFKEVIYMDRYADTENPLLLAKKKETEEMKQKLKVMKNRQRELLSRDDSGLTRKDAFLESIKLLESDTIKKTPLKIEAANDVIKTLRNNVQNIDNELMKLYNDINSLEEKISHQFDDFKEYGYSLFSVFIHRGEASYGHYWIYIKDRNRNGIWRKYNDETISEVQEEEVFNFNEGNTATPYFLVYVKQGQEGDIEPLKRILK
notes: also called Ubp2p
B3: Ubp6 (enzyme, S. cerevisiae, UniProt P43593 1-499, looked up)
chain: MSGETFEFNIRHSGKVYPITLSTDATSADLKSKAEELTQVPSARQKYMVKGGLSGEESIKIYPLIKPGSTVMLLGTPDANLISKPAKKNNFIEDLAPEQQVQQFAQLPVGFKNMGNTCYLNATLQALYRVNDLRDMILNYNPSQGVSNSGAQDEEIHKQIVIEMKRCFENLQNKSFKSVLPIVLLNTLRKCYPQFAERDSQGGFYKQQDAEELFTQLFHSMSIVFGDKFSEDFRIQFKTTIKDTANDNDITVKENESDSKLQCHISGTTNFMRNGLLEGLNEKIEKRSDLTGANSIYSVEKKISRLPKFLTVQYVRFFWKRSTNKKSKILRKVVFPFQLDVADMLTPEYAAEKVKVRDELRKVEKEKNEKEREIKRRKFDPSSSENVMTPREQYETQVALNESEKDQWLEEYKKHFPPNLEKGENPSCVYNLIGVITHQGANSESGHYQAFIRDELDENKWYKFNDDKVSVVEKEKIESLAGGGESDSALILMYKGFGL
notes: also called Ubp6p
B4: Yuh1 (enzyme, S. cerevisiae, UniProt P35127 1-236, looked up)
chain: MSGENRAVVPIESNPEVFTNFAHKLGLKNEWAYFDIYSLTEPELLAFLPRPVKAIVLLFPINEDRKSSTSQQITSSYDVIWFKQSVKNACGLYAILHSLSNNQSLLEPGSDLDNFLKSQSDTSSSKNRFDDVTTDQFVLNVIKENVQTFSTGQSEAPEATADTNLHYITYVEENGGIFELDGRNLSGPLYLGKSDPTATDLIEQELVRVRVASYMENANEEDVLNFAMLGLGPNWE
notes: also called Yuh1p
B5: Ubp15 (enzyme, S. cerevisiae, UniProt P50101 1-1230, looked up)
chain: MSSEDELGSIGTVFPGSPIDKSIGSILPQFDEEVETLLEDSFTWNIPDWNELTNPKYNSPRFRIGDFEWDILLFPQGNHNKGVAVYLEPHPEEKLDETTGEMVPVDPDWYCCAQFAIGISRPGNGDTINLINKSHHRFNALDTDWGFANLIDLNNLKHPSKGRPLSFLNEGTLNITAYVRILKDPTGVLWHNFLNYDSKKVTGYVGFRNQGATCYLNSLLQSYFFTKYFRKLVYEIPTEHESPNNSVPLALQRAFYQLQVSDIPLDTLELTRSFGWDTAESFTQHDVQELNRILMDRLENNMKGTPVEGKLNEIFVGKMKSYIKCINVDYESARVEDFWDLQLNVKNFKNLQESFDNYIEMELMNGENQYAAQDYGLQDAQKGVIFESFPPVLHLQLKRFEYDFNYDQMVKVNDKYEFPETIDLSPFVDKDVLKKTLDSENKDKNPYVYNLHGVLVHSGDISTGHYYTLIKPGVEDQWYRFDDERVWRVTKKQVFQENFGCDRLPDEKVRTMTRGEYQNYIIQRHTSAYMLVYIRQEQEEDLLRPVLESDVPKHVITRVREEIKERETKEKEIREAHLYVTLRLHSIKEFIHYEGFDYFAHDGFRLFAEELNDSGLQQINLKVLRTTKLSDIFASIKETMNIPQERDVKYWKMDYRRNSTLRLTQPINFESVNITLQEALKKEKKRTMQTQYGEEGVASTEEDDKALLETVSFLDLFIEEPYLELQFLNKLKEASLISKAQLDDELISTIRTNLPELTKGGIEPVFATDNKSNLLFVKSYDPHTQKLLGFGHFAVNQLQQLSDISAIIEDSISSNEKLTFYEEVQPGTINEIYMKETIYDADIDTGDIVSFEVPGAVLPDTFPVYATIKDFYSYLRYRVKLKFSKFDGSSEEYGVSNEIPESFEFWISAYAPYDDLARMVSKYAHVKPEYLKIIALYSNGRFVLKSTSLLNDYLLKDFNCDQIPPFAFEVLSVPLKELERLRPIKLYWLKNSYIHYQCFEFEVANDYTESQFLEKVQHKIGFTDEEKENILLWTNTNFQFQGLLSDQNTFKDVSKHSLLFGRILPEESKLFKELNRLENVQTSSLEDFMDDENATDRPMDDEQDLGMAIEHSEDMKGRIVVVQQYFKDLENRHGISFLFNLIPDETFPKTKDRLHAKFGLGQKEFSKIKLSIGYSTEEGTVFRSLQGFSDEELDKVILYDIMSNLDYIYMDHPDRLRSHSSYDRPMIIKN
notes: also called Ubp15p
B6: USP14 (TGT) (enzyme, mouse (EL-4 cell lysate), UniProt Q9JMA1 1-493, looked up)
chain: MPLYSVTVKWGKEKFEGVELNTDEPPMVFKAQLFALTGVQPARQKVMVKGGTLKDDDWGNIKMKNGMTVLMMGSADALPEEPSAKTVFVEDMTEEQLATAMELPCGLTNLGNTCYMNATVQCIRSVPELKDALKRYAGALRASGEMASAQYITAALRDLFDSMDKTSSSIPPIILLQFLHMAFPQFAEKGEQGQYLQQDANECWIQMMRVLQQKLEAIEDDSGRETDSSSAPAVTPSKKKSLIDQYFGVEFETTMKCTESEEEEVTKGKENQLQLSCFINQEVKYLFTGLKLRLQEEITKQSPTLQRNALYIKSSKISRLPAYLTIQMVRFFYKEKESVNAKVLKDVKFPLMLDVYELCTPELQEKMVSFRSKFKDLEDKKVNQQPNANDKNSPPKEIKYEPFSFADDIGSNNCGYYDLQAVLTHQGRSSSSGHYVSWVRRKQDEWIKFDDDKVSIVTPEDILRLSGGGDWHIAYVLLYGPRRVEIMEEESEQ
notes: also called p58

One experiment addresses T1, ubiquitin aldehyde (Ubal) (UniProt P0CG47 1-76, C-terminal residue as aldehyde). As to the kind of experiment: competition: wild type yeast lysate pre-incubated with increasing Ubal, then [^125I]-UbVS labeling. An excerpt: Reactions were quenched with sample buffer, resolved by 10% SDS-PAGE and analyzed by autoradiography. Identity of bands was assigned based on the absence of a band corresponding to the molecular weight of a DUB deleted in that strain.
With B1, the binding result is listed as “binds”.
Still for that read-out and setting: then B2, with “binds”.
For the molecule B3, the binding result was “binds”.
Still for that read-out and setting: the same measure for B4: “binds”; for B5: “binds”.

A further experiment addresses T1, ubiquitin aldehyde (Ubal). Kind of experiment: competition: lysate pre-treated with Ubal, then [^125I]-UbVS labeling.
On to B6, for which the binding result is listed as “binds”.
